From patent US20120288494A1

Assays:
human IL-12 p70 (human) = human IL-12 p70 (human) (UniProt P29460); experiment: koff; method not given
IL-12 = IL-12 (UniProt P29460); experiment: receptor binding assay (RBA)
Sequence of IL-12 (P29460 23-328, chain 1 of 2): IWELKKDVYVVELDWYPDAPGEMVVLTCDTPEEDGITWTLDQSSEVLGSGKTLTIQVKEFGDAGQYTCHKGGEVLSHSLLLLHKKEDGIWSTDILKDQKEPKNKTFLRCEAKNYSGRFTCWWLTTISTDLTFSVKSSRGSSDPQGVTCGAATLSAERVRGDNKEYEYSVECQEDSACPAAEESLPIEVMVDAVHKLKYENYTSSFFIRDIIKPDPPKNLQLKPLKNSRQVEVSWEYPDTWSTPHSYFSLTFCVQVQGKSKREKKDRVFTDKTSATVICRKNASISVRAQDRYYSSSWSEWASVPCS
Sequence of IL-12 (P29459 23-219, chain 2 of 2, further chain): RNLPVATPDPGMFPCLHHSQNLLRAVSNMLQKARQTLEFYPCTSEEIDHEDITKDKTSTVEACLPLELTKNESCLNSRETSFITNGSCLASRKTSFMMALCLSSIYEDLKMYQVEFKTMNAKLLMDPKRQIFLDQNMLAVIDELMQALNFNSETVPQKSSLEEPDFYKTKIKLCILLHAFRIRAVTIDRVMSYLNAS

Sequence of human IL-12 p70 (human) (P29460 23-328, chain 1 of 2): as the sequence (P29460 23-328, chain 1 of 2) above
Sequence of human IL-12 p70 (human) (chain, as listed by the source, chain 2 of 2): as the sequence (P29459 23-219, chain 2 of 2, further chain) above

Substance | fold increase in koff (against Y61) (human IL-12 p70 (human)) | IC50 (IL-12)
Y61 with Asn-L31 mutated to aspartate (antibody) | 2.5 fold | –
Y61 with His-H95 mutated to glutamate (antibody) | 8 fold | –
Y61 L50Y | – | 0.02 nM
Y61 L94Y | – | 0.06 nM
